Source: PMC8727025, “Src activates retrograde membrane traffic through phosphorylation of GBF1” (eLife, 2021)

Legend:
[1] = biological target: T1, GFP-GBF1 (wild type) immunoprecipitated from cells expressing active SrcEG (tyrosine-phosphorylated GBF1) (human, UniProt Q92538-1 1-1859, phosphotyrosine at Y876 and Y898 and at eight other tyrosines (10 in all by mass spectrometry; positions 317, 377, 515 and five tyrosines in HDS2/3 are named)); assay: cell-based or functional assay
[2] = biological target: T1, GFP-GBF1 (wild type) immunoprecipitated …; assay: pull-down; in vitro Arf1 binding assay: NGFP-GBF1 immunoprecipitated on GFP-trap agarose beads from cells expressing SrcKM or SrcEG, incubated with 4 mg lysate of HEK293T cells expressing Arf1-V5 (pre-cleared) for 1 hr at 4°C in the presence of GDP; washed three times with HKMT buffer (20 mM HEPES pH 7.4, 0.1 M KCl, 1 mM MgCl2, 0.5% Triton X-100); bound Arf1 by immunoblot; settings: one partner purified
[3] = biological target: T2, GFP-GBF1-Y898F immunoprecipitated from cells expressing active SrcEG (human, UniProt Q92538-1 1-1859, Y898F); assay: pull-down; in vitro Arf1 binding assay: NGFP-GBF1 (wild type or mutant) immunoprecipitated on GFP-trap agarose beads from cells expressing SrcKM or SrcEG, incubated with 10 µg recombinant Arf1-del17 protein for 1 hr at 4°C in the presence of GDP; washed three times with HKMT buffer (20 mM HEPES pH 7.4, 0.1 M KCl, 1 mM MgCl2, 0.5% Triton X-100); bound Arf1 by western blot; settings: both partners purified
T2 construct: GBF1, human, with Y898F; source: expressed in cells coexpressing active SrcEG, immunoprecipitated on GFP-trap agarose beads; not shown: GFP, N-terminal, kept
T2 sequence (Q92538 other isoform, or with tags, fused parts or gaps Y898F | Y898F | Y898F Y898F): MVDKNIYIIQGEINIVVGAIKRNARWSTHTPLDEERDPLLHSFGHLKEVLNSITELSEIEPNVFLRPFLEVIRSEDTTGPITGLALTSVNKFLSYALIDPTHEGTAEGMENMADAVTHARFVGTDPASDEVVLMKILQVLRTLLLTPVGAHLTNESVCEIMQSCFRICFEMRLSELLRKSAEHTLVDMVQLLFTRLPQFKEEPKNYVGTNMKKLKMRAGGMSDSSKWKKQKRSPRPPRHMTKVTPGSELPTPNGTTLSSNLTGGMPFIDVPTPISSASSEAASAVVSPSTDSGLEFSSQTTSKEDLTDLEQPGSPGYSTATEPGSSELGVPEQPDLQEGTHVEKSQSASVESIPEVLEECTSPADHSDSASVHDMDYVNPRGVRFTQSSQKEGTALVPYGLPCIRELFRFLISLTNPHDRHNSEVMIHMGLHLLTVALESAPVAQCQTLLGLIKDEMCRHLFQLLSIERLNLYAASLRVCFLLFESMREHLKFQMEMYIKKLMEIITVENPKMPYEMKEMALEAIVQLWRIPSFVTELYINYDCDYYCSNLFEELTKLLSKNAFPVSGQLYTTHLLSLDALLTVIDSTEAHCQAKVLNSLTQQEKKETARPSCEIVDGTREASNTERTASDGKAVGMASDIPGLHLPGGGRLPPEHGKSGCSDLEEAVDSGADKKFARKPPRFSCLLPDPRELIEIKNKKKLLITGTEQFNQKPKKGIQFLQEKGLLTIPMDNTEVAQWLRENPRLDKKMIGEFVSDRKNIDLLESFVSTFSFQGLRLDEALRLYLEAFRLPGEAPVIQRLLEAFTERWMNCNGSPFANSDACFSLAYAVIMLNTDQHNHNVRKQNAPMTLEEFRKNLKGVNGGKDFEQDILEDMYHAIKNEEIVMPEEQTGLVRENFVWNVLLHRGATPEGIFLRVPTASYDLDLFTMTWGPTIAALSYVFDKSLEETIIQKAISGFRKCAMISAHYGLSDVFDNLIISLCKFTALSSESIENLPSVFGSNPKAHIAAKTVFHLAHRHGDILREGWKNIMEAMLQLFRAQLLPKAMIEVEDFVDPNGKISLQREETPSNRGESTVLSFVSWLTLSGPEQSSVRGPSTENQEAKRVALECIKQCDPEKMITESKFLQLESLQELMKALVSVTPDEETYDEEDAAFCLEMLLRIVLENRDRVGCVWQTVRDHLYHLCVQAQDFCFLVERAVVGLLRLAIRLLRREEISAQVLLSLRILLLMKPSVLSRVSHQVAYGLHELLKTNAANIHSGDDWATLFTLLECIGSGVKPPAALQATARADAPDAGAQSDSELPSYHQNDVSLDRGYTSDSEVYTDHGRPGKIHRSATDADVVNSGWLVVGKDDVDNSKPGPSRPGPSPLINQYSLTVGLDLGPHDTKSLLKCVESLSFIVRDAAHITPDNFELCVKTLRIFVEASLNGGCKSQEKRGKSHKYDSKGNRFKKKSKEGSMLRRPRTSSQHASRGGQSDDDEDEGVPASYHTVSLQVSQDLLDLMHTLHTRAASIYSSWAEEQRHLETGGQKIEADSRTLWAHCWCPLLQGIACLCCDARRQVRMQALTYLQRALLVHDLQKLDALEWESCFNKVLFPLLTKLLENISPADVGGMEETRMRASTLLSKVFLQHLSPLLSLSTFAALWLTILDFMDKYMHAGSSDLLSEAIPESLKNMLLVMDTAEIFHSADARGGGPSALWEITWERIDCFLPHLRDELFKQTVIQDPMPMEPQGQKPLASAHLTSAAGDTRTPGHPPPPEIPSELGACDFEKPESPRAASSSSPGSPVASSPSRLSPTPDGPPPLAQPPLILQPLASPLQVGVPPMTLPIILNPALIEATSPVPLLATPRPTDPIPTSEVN

[4] = biological target: T3, GFP-GBF1-Y876F immunoprecipitated from cells expressing active SrcEG (human, UniProt Q92538-1 1-1859, Y876F); assay: as above; settings: both partners purified
T3 construct: GBF1, human, with Y876F; source: expressed in cells coexpressing active SrcEG, immunoprecipitated on GFP-trap agarose beads; not shown: GFP, N-terminal, kept
T3 sequence (Q92538 other isoform, or with tags, fused parts or gaps Y876F | Y876F | Y876F Y876F): as the sequence (Q92538 other isoform, or with tags, fused parts or gaps Y898F | Y898F | Y898F Y898F) above, with Y876F, F898Y counted along it

[5] = biological target: T4, GFP-GBF1-Y876.898F double mutant immunoprecipitated from cells expressing active SrcEG (human, UniProt Q92538-1 1-1859, Y876F | Y898F); assay: as above; settings: both partners purified
T4 construct: GBF1, human, with Y876F and Y898F; source: expressed in cells coexpressing active SrcEG, immunoprecipitated on GFP-trap agarose beads; not shown: GFP, N-terminal, kept
T4 sequence (Q92538 other isoform, or with tags, fused parts or gaps Y876F | Y898F | Y876F | Y898F | mutant): as the sequence (Q92538 other isoform, or with tags, fused parts or gaps Y898F | Y898F | Y898F Y898F) above, with Y876F counted along it

T1 sequence (Q92538 other isoform, or with tags, fused parts or gaps): as the sequence (Q92538 other isoform, or with tags, fused parts or gaps Y898F | Y898F | Y898F Y898F) above, with F898Y counted along it

Binder | Arf1-GTP levels (GGA3 PBD bead pull-down of endogenous Arf1-GTP) in HEK-IS cells expressing GFP-GBF1, after imidazole activation of Src8A7F, 0 to 45 min, peak at 10 min [1] [fold] | fold increase in bound Arf1-V5 against GFP-GBF1 from SrcKM cells [2] [fold] | percent reduction of bound Arf1 against wild-type GFP-GBF1 from SrcEG cells [3] [%] | percent reduction of bound Arf1 against wild-type GFP-GBF1 from SrcEG cells [4] [%] | percent reduction of bound Arf1 against wild-type GFP-GBF1 from SrcEG cells [5] [%]
C-terminal V5-tagged Arf1 (Arf1-V5) (natural protein, Arf1 small GTPase (ADP-ribosylation factor 1); The assay was done in the presence of GDP; source: HEK293T cells expressing Arf1-V5, in lysate (pre-cleared with agarose beads); not shown: V5, C-terminal, kept) not shown | ~3 | 2 | – | – | –
Arf1-del17-His, recombinant Arf1 deleted of the first 17 amino acids (domain or fragment, Arf1 small GTPase deleted of the first 17 amino acids; The assay was done in the presence of GDP; also called Arf1-His; recombinant Arf1-del17 protein; source: bacterially produced and purified) not shown | – | – | 60 | 40 | > 70
